In general, Vmax refers to the rate approached at saturating substrate. By kcat is commonly meant the maximal rate divided by the concentration of active sites. Broadly, the kcat/Km is the turnover number divided by the Michaelis constant.

The values below come from article PMC7393678, “First Evidence of Acyl-Hydrolase/Lipase Activity From Human Probiotic Bacteria: Lactobacillus rhamnosus GG and Bifidobacterium longum NCC 2705” (Frontiers in Microbiology, 2020).

Data set [1] concerns T1, LrLyp.
T1 construct: C-terminal His6 (pET21b); E. coli; probably monomer
The data set can be described thus: p-nitrophenol release at […] nm, initial rates, substrate inhibition model. It is filed as biochemical, Lacticaseibacillus rhamnosus. The note with it: pH 7, 37°C, 20 mM McIlvaine buffer, substrate 0.1-9 mM from DMSO/Triton X-100 stock; apparent constant from substrate inhibition fit; read-out: KMapp.

Data set [2] relates to T1, LrLyp. The description is as above. The note with it: substrate inhibition constant, second site; pH 7, 37°C, 20 mM McIlvaine buffer, substrate 0.1-9 mM. It counts as biochemical, Lacticaseibacillus rhamnosus.
Substrate in the data set “purified protein”: CCCCCCCCCCCC(=O)Oc1ccc([N+](=O)[O-])cc1
The data set can be described thus: purified protein. It counts as biochemical, Bifidobacterium longum. Conditions: pH 7, 37°C, 20 mM McIlvaine buffer, substrate 0.1-9 mM from DMSO/Triton X-100 stock, apparent constant.

In the case of `CCCCCCCCCCCC(=O)Oc1ccc([N+](=O)[O-])cc1` [pNP-laurate], the Km in the data set with LrLyp [1] was found to be 11.4 mM. Further, in the data set with LrLyp [2], the “KIapp” value was found to be 1.57 mM.

B1: BlLyp (Bifidobacterium longum NCC2705) (protein)
chain: PPDNRRVSRLIRHTGKGLSGSFPFCSCRSWAKVGVFALPNPPLKGPVVMPINEALFAAMKAASYIKPNAGKSYKLQRVAEELIAKQAPANPKCRVEDAFAPMADGYAVPLRVFTPLVAYGAPLPEALEESSANGTPVASAISAILPAVLPKVLPKILIKESTSSGNADGISGNANTELPSVTPRGTILFFHGGGWTTGGINLYTQACAHMAVRLQRRVISVEYRLAPEYRFPTAVEDCYEVARQLFAGELPISGVGGSVDVDHPQSAAPTAPAGGGDISATIPAPDPDSIVLFGDSAGGNLAAAVSLMARDRGEFMPRTQMLLYPVVGNDYNPETSPFESVRTNGTDYILTAQDMADYIDMYRSSVADLTNPYFAPLTAHDLSNQPRTLVLSAEYCPLRDEDEAYARRLQLVNDNVSCYRIHDGIHGYLLNTSAVGLVATTYRIIEHFLDGTPLEPAPGTGTTANAPEGGDAWQDVLGTD
notes: C-terminal His6 (pET21b); E. coli; monomer at pH 7
Consider B1, for which, in “purified protein”, the Km came to 2.56 mM, the Vmax is 0.05 µmol/min/mg, the kcat amounted to 0.04 s⁻¹ and the kcat/Km turned out to be 16 M⁻¹ s⁻¹.
